The record followed here is patent US20120122128A1 (ALLERGAN, published 2012).

This assay concerns the target T1, SNAP-25206 uncleaved substrate in PC12 cells (rat (PC12 cell line), UniProt P60881 1-206, limits assumed).
T1 construct: also called uncleaved SNAP-25206 substrate; uncleaved SNAP-25
Briefly: immunocytochemistry of PC12 cells +/- GFP-BoNT/A-LC, ascites 1:10.

T1 sequence (P60881 whole entry): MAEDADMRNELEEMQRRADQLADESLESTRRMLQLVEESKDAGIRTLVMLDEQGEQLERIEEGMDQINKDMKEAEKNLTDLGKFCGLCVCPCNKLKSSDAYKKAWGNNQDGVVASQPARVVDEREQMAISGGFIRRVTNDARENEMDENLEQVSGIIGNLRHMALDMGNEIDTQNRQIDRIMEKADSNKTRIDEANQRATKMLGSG

B1: α-SNAP-25 monoclonal antibody 3C1A5 (antibody, V domains shown)
VH: VKLQESGAELVKPGASVKISCKASGYTFTDHSIHWVKQKPGQGLEWIGYLFPGNGNFEYNEKFKGKATLTADKSSSTVYMYLNSLTSEDSAVYFCKRMGYWGQGTTVTVSS
VL: DIKMTQSPSSMYASLGERVTITCKASQDIKSYLSWYQQKPWKSPKTLIYYATSLADGVPSRFSGSGSGQDYSLTISSLESDDTATYYCLQHGESPFTFGSGTKLEIKR
On to B1, for which the binding result is “no binding”.
